According to PMC9352680, “A comprehensive thermodynamic model for RNA binding by the Saccharomyces cerevisiae Pumilio protein PUF4”:
Residue numbers refer to the chain shown, from its start. Names and notes keep the numbering of the source.

T1: PUF4 RNA-binding domain (Saccharomyces cerevisiae, UniProt P25339 537-888)
T1 sequence: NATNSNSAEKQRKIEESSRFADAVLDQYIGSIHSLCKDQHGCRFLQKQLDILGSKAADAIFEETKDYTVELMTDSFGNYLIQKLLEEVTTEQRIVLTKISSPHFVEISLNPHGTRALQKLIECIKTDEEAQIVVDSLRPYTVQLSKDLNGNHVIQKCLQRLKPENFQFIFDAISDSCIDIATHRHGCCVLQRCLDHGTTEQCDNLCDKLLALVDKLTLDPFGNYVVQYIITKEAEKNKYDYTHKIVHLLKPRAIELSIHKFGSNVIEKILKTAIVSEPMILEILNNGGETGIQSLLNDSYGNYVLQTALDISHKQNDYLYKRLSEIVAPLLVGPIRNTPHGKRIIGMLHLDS

B1: Ic_S4_P3E.1_K3.1_C3.1_H3.1_A3.1_[T5C]_F3.1_[A8C]_T3.1 (ssRNA)
RNA: UUUGACAACUGAUCGUUCUUUCUUGUACAUCUUCUUUCUCGAUCAGUUGUCUUU
B2: Ib_S4_P3E.1_K3.1_C3.1_H3.1_[T1A]_A3.1_[A6T]_F3.1_T3.1 (ssRNA)
RNA: B1 RNA with U24A, C28U, A29U, C31A
B3: Ib_S4_P3E.1_K3.1_C3.1_H3.1_[T1C]_[A4C]_A3.1_F3.1_T3.1 (ssRNA)
RNA: B1 RNA with U24C, A27C, C28U, C31A
B4: Ib_S4_P3E.1_K3.1_C3.1_H3.1_[A4C]_A3.1_[A6C]_F3.1_T3.1 (ssRNA)
RNA: B1 RNA with A27C, C28U, A29C, C31A
B5: Ib_S4_P3E.1_K3.1_C3.1_H3.1_[A4C]_A3.1_[A6G]_F3.1_T3.1 (ssRNA)
RNA: B1 RNA with A27C, C28U, A29G, C31A
B6: Ib_S4_P3E.1_K3.1_C3.1_H3.1_A3.1_[T5C]_[A6C]_F3.1_T3.1 (ssRNA)
RNA: B1 RNA with A29C, C31A
B7: Ib_S4_P3E.1_K3.1_C3.1_H3.1_[A4G]_A3.1_[A6T]_F3.1_T3.1 (ssRNA)
RNA: B1 RNA with A27G, C28U, A29U, C31A
B8: Ib_S4_P3E.1_K3.1_C3.1_H3.1_[T1A]_A3.1_[A6C]_F3.1_T3.1 (ssRNA)
RNA: B1 RNA with U24A, C28U, A29C, C31A
B9: Ib_S4_P3E.1_K3.1_C3.1_H3.1_[A4C]_A3.1_[T5C]_F3.1_T3.1 (ssRNA)
RNA: B1 RNA with A27C, C31A
B10: Ib_S4_P3E.1_K3.1_C3.1_H3.1_[T1G]_A3.1_[A6G]_F3.1_T3.1 (ssRNA)
RNA: B1 RNA with U24G, C28U, A29G, C31A
B11: Ib_S4_P3E.1_K3.1_C3.1_H3.1_[G2A]_A3.1_[T5A]_F3.1_T3.1 (ssRNA)
RNA: B1 RNA with G25A, C28A, C31A
B12: Ib_S4_P3E.1_K3.1_C3.1_H3.1_[A4G]_A3.1_[T5C]_F3.1_T3.1 (ssRNA)
RNA: B1 RNA with A27G, C31A
B13: Ib_S4_P3E.1_K3.1_C3.1_H3.1_[A4C]_A3.1_[T5A]_F3.1_T3.1 (ssRNA)
RNA: B1 RNA with A27C, C28A, C31A
B14: Ib_S4_P3E.1_K3.1_C3.1_H3.1_[G2A]_[A4G]_A3.1_F3.1_T3.1 (ssRNA)
RNA: B1 RNA with G25A, A27G, C28U, C31A
B15: Ib_S4_P3E.1_K3.1_C3.1_H3.1_A3.1_[A6T]_F3.1_[A8T]_T3.1 (ssRNA)
RNA: B1 RNA with C28U, A29U, C31U
B16: Ib_S4_P3E.1_K3.1_C3.1_H3.1_[T1A]_A3.1_[T5A]_F3.1_T3.1 (ssRNA)
RNA: B1 RNA with U24A, C28A, C31A
B17: Ib_S4_P3E.1_K3.1_C3.1_H3.1_A3.1_[A6G]_F3.1_[A8G]_T3.1 (ssRNA)
RNA: B1 RNA with C28U, A29G, C31G
B18: Ib_S4_P3E.1_K3.1_C3.1_H3.1_[T3C]_[A4C]_A3.1_F3.1_T3.1 (ssRNA)
RNA: B1 RNA with U26C, A27C, C28U, C31A
B19: Ib_S4_P3E.1_K3.1_C3.1_H3.1_A3.1_[A6T]_F3.1_[A8C]_T3.1 (ssRNA)
RNA: B1 RNA with C28U, A29U
B20: Ib_S4_P3E.1_K3.1_C3.1_H3.1_[T3C]_[A4T]_A3.1_F3.1_T3.1 (ssRNA)
RNA: B1 RNA with U26C, A27U, C28U, C31A
B21: Ib_S4_P3E.1_K3.1_C3.1_H3.1_[T1G]_A3.1_[T5C]_F3.1_T3.1 (ssRNA)
RNA: B1 RNA with U24G, C31A
B22: Ib_S4_P3E.1_K3.1_C3.1_H3.1_[G2C]_[A4G]_A3.1_F3.1_T3.1 (ssRNA)
RNA: B1 RNA with G25C, A27G, C28U, C31A
B23: Ib_S4_P3E.1_K3.1_C3.1_H3.1_[T1C]_A3.1_[A6T]_F3.1_T3.1 (ssRNA)
RNA: B1 RNA with U24C, C28U, A29U, C31A
B24: Ib_S4_P3E.1_K3.1_C3.1_H3.1_[T1A]_A3.1_[T5C]_F3.1_T3.1 (ssRNA)
RNA: B1 RNA with U24A, C31A
B25: Ib_S4_P3E.1_K3.1_C3.1_H3.1_[G2A]_A3.1_[A6G]_F3.1_T3.1 (ssRNA)
RNA: B1 RNA with G25A, C28U, A29G, C31A
B26: Ib_S4_P3E.1_K3.1_C3.1_H3.1_[G2A]_A3.1_[A6T]_F3.1_T3.1 (ssRNA)
RNA: B1 RNA with G25A, C28U, A29U, C31A
B27: Ib_S4_P3E.1_K3.1_C3.1_H3.1_[G2T]_A3.1_[A6T]_F3.1_T3.1 (ssRNA)
RNA: B1 RNA with G25U, C28U, A29U, C31A
B28: Ib_S4_P3E.1_K3.1_C3.1_H3.1_[T1G]_[A4C]_A3.1_F3.1_T3.1 (ssRNA)
RNA: B1 RNA with U24G, A27C, C28U, C31A
B29: Ic_S4_P3E.1_K3.1_C3.1_H3.1_A3.1_[A6C]_F3.1_[A8T]_T3.1 (ssRNA)
RNA: B1 RNA with C28U, A29C, C31U
B30: Ib_S4_P3E.1_K3.1_C3.1_H3.1_[A4C]_A3.1_[A6T]_F3.1_T3.1 (ssRNA)
RNA: B1 RNA with A27C, C28U, A29U, C31A
B31: Ia_S4_P3E.1_K3.1_C3.1_H3.1_A3.1_F3.1_[T7A]_T3.1 (ssRNA)
RNA: B1 RNA with C28U, U30A, C31A
B32: Ib_S4_P3E.1_K3.1_C3.1_H3.1_[G2A]_A3.1_[T5C]_F3.1_T3.1 (ssRNA)
RNA: B1 RNA with G25A, C31A
B33: Ib_S4_P3E.1_K3.1_C3.1_H3.1_[T1C]_A3.1_[T5A]_F3.1_T3.1 (ssRNA)
RNA: B1 RNA with U24C, C28A, C31A
B34: Ib_S4_P3E.1_K3.1_C3.1_H3.1_[G2T]_[A4G]_A3.1_F3.1_T3.1 (ssRNA)
RNA: B1 RNA with G25U, A27G, C28U, C31A
B35: Ia_S4_P3E.1_K3.1_C3.1_H3.1_A3.1_F3.1_[A8G]_T3.1 (ssRNA)
RNA: B1 RNA with C28U, C31G
B36: Ib_S4_P3E.1_K3.1_C3.1_H3.1_[T1G]_A3.1_[A6C]_F3.1_T3.1 (ssRNA)
RNA: B1 RNA with U24G, C28U, A29C, C31A
B37: Ic_S4_P3E.1_K3.1_C3.1_H3.1_A3.1_[A6G]_F3.1_[A8T]_T3.1 (ssRNA)
RNA: B1 RNA with C28U, A29G, C31U
B38: Ib_S4_P3E.1_K3.1_C3.1_H3.1_[A4G]_A3.1_[A6C]_F3.1_T3.1 (ssRNA)
RNA: B1 RNA with A27G, C28U, A29C, C31A
B39: Ib_S4_P3E.1_K3.1_C3.1_H3.1_[G2C]_[A4T]_A3.1_F3.1_T3.1 (ssRNA)
RNA: B1 RNA with G25C, A27U, C28U, C31A
B40: Ib_S4_P3E.1_K3.1_C3.1_H3.1_[T1A]_[A4C]_A3.1_F3.1_T3.1 (ssRNA)
RNA: B1 RNA with U24A, A27C, C28U, C31A
B41: Ib_S4_P3E.1_K3.1_C3.1_H3.1_[T3C]_[A4G]_A3.1_F3.1_T3.1 (ssRNA)
RNA: B1 RNA with U26C, A27G, C28U, C31A
B42: Ib_S4_P3E.1_K3.1_C3.1_H3.1_[G2C]_[A4C]_A3.1_F3.1_T3.1 (ssRNA)
RNA: B1 RNA with G25C, A27C, C28U, C31A
B43: Ib_S4_P3E.1_K3.1_C3.1_H3.1_[T1A]_A3.1_[A6G]_F3.1_T3.1 (ssRNA)
RNA: B1 RNA with U24A, C28U, A29G, C31A

Target: T1, PUF4 RNA-binding domain
Assay: Mg; RNA-MaP; 20 mM Na-HEPES pH 7.4, 30 mM KOAc, 0.75 mM MgCl2, 0.1% Tween-20, 5% glycerol, 0.1 mg/mL BSA, 2 mM DTT; 25 C; 0.0125-409.6 nM protein
Settings: tags: N-His6-TEV cleaved; C-SNAP kept, Cy3B-labelled; label: tethered on chip by stalled RNA polymerase

| Binder | Kd |
| --- | --- |
| B1 | 0.00955 µM |
| B2 | > 2.3 µM |
| B3 | > 2.3 µM |
| B4 | 1.37 µM |
| B5 | 0.0405 µM |
| B6 | 0.0148 µM |
| B7 | 0.0923 µM |
| B8 | > 2.3 µM |
| B9 | 0.443 µM |
| B10 | 0.198 µM |
| B11 | 2.08 µM |
| B12 | 0.0224 µM |
| B13 | 1.45 µM |
| B14 | 0.00575 µM |
| B15 | 0.0119 µM |
| B16 | > 2.3 µM |
| B17 | 0.0382 µM |
| B18 | > 2.3 µM |
| B19 | 0.0284 µM |
| B20 | 2.12 µM |
| B21 | 1.81 µM |
| B22 | 0.00245 µM |
| B23 | > 2.3 µM |

| Binder | Kd |
| --- | --- |
| B24 | > 2.3 µM |
| B25 | 0.0722 µM |
| B26 | 1.9 µM |
| B27 | > 2.3 µM |
| B28 | > 2.3 µM |
| B29 | 0.0135 µM |
| B30 | 1.14 µM |
| B31 | 0.0545 µM |
| B32 | 0.383 µM |
| B33 | > 2.3 µM |
| B34 | 0.00332 µM |
| B35 | 0.00832 µM |
| B36 | > 2.3 µM |
| B37 | 0.0257 µM |
| B38 | 0.117 µM |
| B39 | 1.8 µM |
| B40 | > 2.3 µM |
| B41 | 1.16 µM |
| B42 | > 2.3 µM |
| B43 | 0.225 µM |
| UCUCUUUGCAUAUAUCUCUU (ssRNA) [Ia_S1_P3E.1_K3.1_C3.1_H3.1_[T3C]_A3.1_F3.1_T3.1] | > 2.3 µM |
| ACAAACUGUCUUAUUAACAAAC (ssRNA) [Ia_S3_P5E.1_K5.1_C5.1_H5.1_[A4C]_A5.1_F5.1_T5.1] | 0.365 µM |
| ACAAACAGUAUUAUUAACAAAC (ssRNA) [Ia_S3_P5E.1_K5.1_C5.1_H5.1_[T1A]_A5.1_F5.1_T5.1] | 1.98 µM |
